Test results published in paper PMC13290226, “Intraflagellar transport protein IFT172 contains a C-terminal ubiquitin-binding U-box-like domain involved in ciliary signaling” (eLife, 2026).

How the values were obtained:
Experiment in all cases: pull-down; GST-tagged HsIFT172 constructs (10 μM; 5 μM in Figure 4C) immobilised on GSH beads; prey 20 μM UbcH5a~Ub or 15-25 μM tetra-ubiquitin in 50 mM Tris pH 7.5, 100 mM NaCl, 1 mM DTT, 4 °C, 2 hr; eluted with glutathione; Coomassie and anti-ubiquitin western blot
Conditions in all cases: both partners purified
[1] = molecular target: T1, UbcH5a_(C85S)~Ub conjugate (WT) (human, UniProt P51668 1-147; P0CG48 1-76, C85S, oxyester link from Ser85 (C85S) to ubiquitin | oxyester-linked to UbcH5a Ser85)
T1 construct: Homo sapiens UbcH5a (E2 enzyme), full length, active site cysteine mutated to serine; Homo sapiens ubiquitin; Protocol adapted from Middleton et al., 2014; also called WT UbcH5a~Ub conjugate; E2~Ub conjugate

[2] = molecular target: T2, UbcH5a_(C85S)~Ub conjugate, UbcH5a F62A (human, UniProt P51668 1-147; P0CG48 1-76, C85S | F62A, oxyester link from Ser85 (C85S) to ubiquitin | oxyester-linked to UbcH5a Ser85)
T2 construct: Homo sapiens UbcH5a, full length, C85S and F62A; Homo sapiens ubiquitin; source: in vitro charging reaction of proteins purified from E. coli, purified

[3] = molecular target: T3, UbcH5a_(C85S)~Ub conjugate, UbcH5a A96D (human, UniProt P51668 1-147; P0CG48 1-76, C85S | A96D, oxyester link from Ser85 (C85S) to ubiquitin | oxyester-linked to UbcH5a Ser85)
T3 construct: Homo sapiens UbcH5a, full length, C85S and A96D; Homo sapiens ubiquitin; source: in vitro charging reaction of proteins purified from E. coli, purified

Measured: binding result

B1: GST-tagged HsIFT172C2 (His-GST-TEV-HsIFT172_(1470-C)) (domain or fragment, human, UniProt Q9UG01 1470-1749, looked up)
chain: GAPANPQNFNIYKRIFTDMVSSPGTNCAEAYHSWADLRDVLFNLCENLVKSSEANSPAHEEFKTMLLIAHYYATRSAAQSVKQLETVAARLSVSLLRHTQLLPVDKAFYEAGIAAKAVGWDNMAFIFLNRFLDLTDAIEEGTLDGLDHSDFQDTDIPFEVPLPAKQHVPEAEREEVRDWVLTVSMDQRLEQVLPRDERGAYEASLVAASTGVRALPCLITGYPILRNKIEFKRPGKAANKDNWNKFLMAIKTSHSPVCQDVLKFISQWCGGLPSTSFSFQ
notes: also called GST-HsIFT172C2; source: E. coli BL21 (DE3), purified (Ni-NTA, Q anion exchange, SEC); not shown: GST, N-terminal, kept
binds: all assays above
